Assay results: US20090324614A1 (published 2009)

T1: soluble rat FcRn (rat, UniProt P13599 23-298; P07151 21-119, limits assumed)
T1 construct: also called sol rat FcRn
T1 sequence: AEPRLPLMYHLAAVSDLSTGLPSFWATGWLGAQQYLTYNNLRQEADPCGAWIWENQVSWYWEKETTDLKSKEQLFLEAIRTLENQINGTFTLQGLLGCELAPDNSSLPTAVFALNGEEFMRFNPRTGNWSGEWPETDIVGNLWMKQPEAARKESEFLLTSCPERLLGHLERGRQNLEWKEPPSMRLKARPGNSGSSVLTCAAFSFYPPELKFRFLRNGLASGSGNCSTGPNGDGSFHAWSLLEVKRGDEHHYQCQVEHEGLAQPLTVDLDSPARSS
T1 sequence (b2m): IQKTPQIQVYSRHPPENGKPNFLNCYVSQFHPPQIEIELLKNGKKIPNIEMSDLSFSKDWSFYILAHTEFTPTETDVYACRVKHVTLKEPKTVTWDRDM

T2: rat FcRn/rat β2M expressed on cells (rat, UniProt P13599 23-366; P07151 21-119)
T2 construct: Cells from Neil Simister (Brandeis); also called rat FcRn (cells); rat fibroblasts expressing rat FcRn
T2 sequence: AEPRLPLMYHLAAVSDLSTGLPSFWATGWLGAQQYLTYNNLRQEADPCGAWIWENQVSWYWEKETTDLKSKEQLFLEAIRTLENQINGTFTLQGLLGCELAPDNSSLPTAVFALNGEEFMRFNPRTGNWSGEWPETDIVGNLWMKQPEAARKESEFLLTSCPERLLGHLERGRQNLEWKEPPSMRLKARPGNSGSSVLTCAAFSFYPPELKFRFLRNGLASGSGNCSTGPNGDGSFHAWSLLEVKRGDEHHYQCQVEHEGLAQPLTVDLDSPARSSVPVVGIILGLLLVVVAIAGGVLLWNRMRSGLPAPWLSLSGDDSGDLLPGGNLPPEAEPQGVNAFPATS
T2 sequence (b2m): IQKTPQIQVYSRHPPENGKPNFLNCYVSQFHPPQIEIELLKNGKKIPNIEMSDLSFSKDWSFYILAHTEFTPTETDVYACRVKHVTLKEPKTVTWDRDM


Legend:
[1] = biological target: T3, soluble human FcRn (shFcRn) (human, UniProt P55899 24-297; P61769 21-119); assay: Biacore, pH 7.4
T3 construct: also called soluble hFcRn; sol hFcRn

[2] = biological target: T3, soluble human FcRn (shFcRn); assay: SPR 8500, IgG, pH 6
soluble rat FcRn [3] = biological target: T1, soluble rat FcRn; assay: SPR 8500, IgG, pH 6
[4] = biological target: T3, soluble human FcRn (shFcRn); assay: SPR 8500, IgG, pH 7.5
soluble rat FcRn [5] = biological target: T1, soluble rat FcRn; assay: SPR 8500, IgG, pH 7.5
[6] = biological target: T3, soluble human FcRn (shFcRn); assay: SPR 8500, hFcRn pH 6 (Table 12B)
[7] = biological target: T3, soluble human FcRn (shFcRn); assay: SPR 8500, hFcRn pH 7.4 (Table 12C)
[8] = biological target: T4, human FcRn/human β2M expressed by cells (293 C11 cells) (human, UniProt P55899 24-365; P61769 21-119); assay: FACS blocking of IgG-Fc, IgG, pH 6
T4 construct: HEK 293 cells engineered to overexpress FcRn; Whole entries named; also called hFcRn (cells); hFcRn in THP-1 and Caco-2 cells

[9] = biological target: T2, rat FcRn/rat β2M expressed on cells; assay: FACS blocking of IgG-Fc, IgG, pH 6
soluble rat FcRn [10] = biological target: T1, soluble rat FcRn; assay: SPR 8500, rat FcRn pH 6 (Table 12D)
soluble rat FcRn [11] = biological target: T1, soluble rat FcRn; assay: SPR 8500, rat FcRn pH 7.4 (Table 12E)
[12] = biological target: T4, human FcRn/human β2M expressed by cells …; assay: FACS (blocking), IgG, hFcRn cells, pH 6
[13] = biological target: T3, soluble human FcRn (shFcRn); assay: Biacore, hFcRn immobilized, IgG flowed, pH 6
[14] = biological target: T3, soluble human FcRn (shFcRn); assay: Biacore, IgG immobilized, hFcRn flowed, pH 6
[15] = biological target: T3, soluble human FcRn (shFcRn); assay: Biacore, hFcRn immobilized, IgG flowed, pH 7.4
[16] = biological target: T3, soluble human FcRn (shFcRn); assay: Biacore, IgG immobilized, hFcRn flowed, pH 7.4
[17] = biological target: T3, soluble human FcRn (shFcRn); assay: Biacore, IgG immobilized, hFcRn flowed, pH 7.4; remark: listed apart in the source
[18] = biological target: T3, soluble human FcRn (shFcRn); assay: SPR 8500, hFcRn pH 6 (Table 11B)
[19] = biological target: T3, soluble human FcRn (shFcRn); assay: SPR 8500, hFcRn pH 7.4 (Table 11C)
soluble rat FcRn [20] = biological target: T1, soluble rat FcRn; assay: SPR 8500, rat FcRn pH 6 (Table 11D)

Binder | K off Fold improvement over DX2500 [1] | K off Fold improvement over M90-F11 [1] | KD Fold improvement over DX2500 [1] | KD Fold improvement over M90-F11 [1] | Kd [6] | koff [6] | kon [6] | Kd [7] | koff [7] | kon [7] | IC50 [12] | Kd [13] | koff [13] | kon [13] | Kd [14] | koff [14] | kon [14] | Kd [15] | koff [15] | kon [15] | also measured
532A-M0090-F11 IgG (antibody) chain 1: not shown chain 2: QSVLTQPASVSGSPGQSITISCTGTGSDVGSYNLVSWYQKYPGKAPKLIIYGDSQRPSGLSSRFSGSKSGNSASLTISGLQAEDEADYYCCSYAGSGIYVFGSGTKVTVLSQPKANPTVTLFPPSSEELQANKATLVCLISDFYPGAVTVAWKADGSPVKAGVETTKPSKQSNNKYAASSYLSLTPEQWKSHRSYSCQVTHEGSTVEKTVAPAECS | 7 fold | 1 fold | 5 fold | 1 fold | 2.44 nM | 0.00248 s⁻¹ | 1.02e+06 M⁻¹ s⁻¹ | 10.8 nM | 0.00173 s⁻¹ | 159000 M⁻¹ s⁻¹ | 0.43 nM | 0.118 nM | 0.000252 s⁻¹ | 2.13e+06 M⁻¹ s⁻¹ | 10.3 nM | 0.00312 s⁻¹ | 303000 M⁻¹ s⁻¹ | 0.772 nM | 0.000702 s⁻¹ | 909000 M⁻¹ s⁻¹ | Kd [2]: 2.44 nM; Kd (soluble rat FcRn [3]): 9.8 nM; Kd [4]: 10.8 nM; Kd (soluble rat FcRn [5]): 9.14 nM; IC50 [8]: 2.6 nM; IC50 [9]: 4.9 nM; Kd (soluble rat FcRn [10]): 9.8 nM; koff (soluble rat FcRn [10]): 0.00117 s⁻¹; kon (soluble rat FcRn [10]): 119000 M⁻¹ s⁻¹; Kd (soluble rat FcRn [11]): 9.14 nM; koff (soluble rat FcRn [11]): 0.00114 s⁻¹; kon (soluble rat FcRn [11]): 125000 M⁻¹ s⁻¹; Kd [16]: 20.5 nM; koff [16]: 0.00373 s⁻¹; kon [16]: 181000 M⁻¹ s⁻¹; Kd [17]: 18.6 nM; koff [17]: 0.00299 s⁻¹; kon [17]: 161000 M⁻¹ s⁻¹
DX-2500 (germlined LC & allotype HC changes) (antibody) chain 1: not shown chain 2: QSALTQPASVSGSPGQSITISCTGTGSDVGSYNLVSWYQQHPGKAPKLMIYGDSQRPSGVSNRFSGSKSGNTASLTISGLQAEDEADYYCCSYAGSGIYVFGTGTKVTVLGQPKANPTVTLFPPSSEELQANKATLVCLISDFYPGAVTVAWKADGSPVKAGVETTKPSKQSNNKYAASSYLSLTPEQWKSHRSYSCQVTHEGSTVEKTVAPTECS | 1 fold | 0.15 fold | 1 fold | 0.21 fold |  |  |  |  |  |  | 0.65 nM | 0.16 nM | 0.000336 s⁻¹ | 2.11e+06 M⁻¹ s⁻¹ | 27.6 nM | 0.0177 s⁻¹ | 642000 M⁻¹ s⁻¹ | 0.268 nM | 0.000338 s⁻¹ | 1.26e+06 M⁻¹ s⁻¹ | Kd [17]: 87.9 nM; koff [17]: 0.0197 s⁻¹; kon [17]: 224000 M⁻¹ s⁻¹

Continued, in another order:

K off Fold improvement over DX2500 [1] | K off Fold improvement over M90-F11 [1] | KD Fold improvement over DX2500 [1] | KD Fold improvement over M90-F11 [1] | Kd [6] | koff [6] | kon [6] | Kd [7] | koff [7] | kon [7] | IC50 [12] | Kd [13] | koff [13] | kon [13] | Kd [14] | koff [14] | kon [14] | Kd [15] | koff [15] | kon [15] | Binder | also measured
 |  |  |  |  |  |  |  |  |  | 0.38 nM | 0.172 nM | 0.000764 s⁻¹ | 4.45e+06 M⁻¹ s⁻¹ | 29.9 nM | 0.0172 s⁻¹ | 574000 M⁻¹ s⁻¹ | 0.779 nM | 0.000776 s⁻¹ | 996000 M⁻¹ s⁻¹ | 532A-M0090-F11 (germlined LC changes) IgG (antibody) chain 1: not shown chain 2: QSALTQPASVSGSPGQSITISCTGTGSDVGSYNLVSWYQQHPGKAPKLMIYGDSQRPSGVSNRFSGSKSGNTASLTISGLQAEDEADYYCCSYAGSGIYVFGTGTKVTVLGQPKANPTVTLFPPSSEELQANKATLVCLISDFYPGAVTVAWKADGSPVKAGVETTKPSKQSNNKYAASSYLSLTPEQWKSHRSYSCQVTHEGSTVEKTVAPTECS | Kd [16]: 35.2 nM; koff [16]: 0.0152 s⁻¹; kon [16]: 433000 M⁻¹ s⁻¹
 |  |  |  | 0.409 nM | 0.00094 s⁻¹ | 2.3e+06 M⁻¹ s⁻¹ | 0.675 nM | 0.0023 s⁻¹ | 3.41e+06 M⁻¹ s⁻¹ |  |  |  |  |  |  |  |  |  |  | 3B3 mouse anti-human FcRn IgG (antibody) chain 1: VKLQESGPELVKPGASVKISCKASGYAFSRSWMNWVKQRPGQGLEWIGRIHPGDGDTNYNGKFKGKATLTVAKSSSTAYMQLSSLTSVDSAVYFCANEGSPYFDYWGQGTTLTVSS chain 2: DIQLTQSPTTVAASPGEKITITCSASSSISSNYLHWYQQKPGFSPKLLIYRTSNLASGVPARFSGSGSGTSYSLTIGTMEAEDVATYYCQQGSNIPLTFGAGTKLELKRADAAPTVSIFPPSSEQLTSGGASVVCFLNNFYPKDINVKWKIDGSERQNGVLNSWTDQDSKDSTYSMSSTLTLTKDEYERHNSYTCEATHKTSTSPIVKSFNKNE | Kd [18]: 0.34 nM; koff [18]: 0.00131 s⁻¹; kon [18]: 3.82e+06 M⁻¹ s⁻¹; Kd [19]: 0.593 nM; koff [19]: 0.00176 s⁻¹; kon [19]: 2.97e+06 M⁻¹ s⁻¹; IC50 [8]: 9.7 nM; Kd (soluble rat FcRn [20]): 1.5 nM; koff (soluble rat FcRn [20]): 0.00104 s⁻¹; kon (soluble rat FcRn [20]): 683000 M⁻¹ s⁻¹
